Data taken from US20150086555A1.

B1: TCN-527 (5086_C06) (antibody, V domains shown)
VH: QVQLQESGPGLVKPSETLSLNCAVSGGSISNYYWSWIRQPPGKGLEWIGYISYNGRPKYNPSLTSRVTISVDTSKDQFSLELRSVTAADTALYYCARETRFGELLSPYDAFEIWGQGTMVTVSS
VL: DIQMTQSPSSLSASVGDRVTMTCRASQNIRSYLNWYQQRPGTAPKLLIYAASTLHSGVPSRFSGGGSGTDFTLTINNLQPEDFASYYCQQSYDNPQTFGQGTKVEIK
B2: TCN-528 (5087_P17) (antibody, V domains shown)
VH: QVQLVQSGSEVKKPGASVKVSCKASGYTFTNYDINWIRQAPGQGLEWMGWINPNSGTTGSAQRFQGRVTITVDTSITTVYMELSSLRSDDTAIYYCARGRELLRLQHFLTDSQSERRDCFDPWGQGTLVTVSS
VL: DIQMTQSPSSLSASVGDRVTITCRANQDIGIYLNWYQQNPGKVPKLLLHGASSLQGGVPSRFSASGSGTDFTLTIHSLQPEDLATYYCQQSRRLPYTFGQGTRVELK

Experiments:
Settings in all cases: remark: other sources report otherwise
[1] = biological target: recombinant soluble homotrimeric HA of A/Anhui/1/05 (H5N1) (Influenza A virus A/Anhui/1/2005(H5N1)); assay: trimeric HA microarray, transfection supernatant set 2
[2] = biological target: recombinant soluble homotrimeric HA of A/South Carolina/1/18 (H1N1) (Influenza A virus A/South Carolina/1/18 (H1N1)); assay: as above
[3] = biological target: recombinant soluble homotrimeric HA of A/chicken/Vietnam/NCVD-016/08 (H5N1) (Influenza A virus A/chicken/Vietnam/NCVD-016/2008(H5N1)); assay: as above
[4] = biological target: recombinant soluble homotrimeric HA of A/California/4/09 (H1N1) (Influenza A virus A/California/04/2009(H1N1)); assay: as above
[5] = biological target: recombinant soluble homotrimeric HA of A/Vietnam/1203/04 (H5N1) (Influenza A virus A/VietNam/1203/2004(H5N1)); assay: as above
[6] = biological target: recombinant soluble homotrimeric HA of A/Netherlands/219/03 (H7N7) (Influenza A virus A/Netherlands/219/03(H7N7)); assay: as above
[7] = biological target: recombinant soluble homotrimeric HA of A/Solomon Islands/3/06 (H1N1) (Influenza A virus A/Solomon Islands/3/2006(H1N1)); assay: as above
[8] = biological target: recombinant soluble homotrimeric HA of A/Egypt/3300-NAMRU3/08 (H5N1) (Influenza A virus A/Egypt/3300-NAMRU3/2008(H5N1)); assay: as above
[9] = biological target: recombinant soluble homotrimeric HA of A/Japan/305/57 (H2N2) (Influenza A virus A/Japan/305/1957(H2N2)); assay: as above
[10] = biological target: recombinant soluble homotrimeric HA of A/Indonesia/5/05 (H5N1) (Influenza A virus A/Indonesia/5/2005(H5N1)); assay: as above
[11] = biological target: recombinant homotrimeric HA A/duck/Yangzhou/02/05 H8N4 (Influenza A virus A/duck/Yangzhou/02/2005(H8N4)); assay: protein microarray, purified IgG, trimeric HA
[12] = biological target: recombinant homotrimeric HA A/swine/Ontario/01911-2/99 H4N6 (Influenza A virus A/Swine/Ontario/01911-2/99 (H4N6)); assay: protein microarray, purified IgG, trimeric HA

| Binder | Trimeric HA Binding: RLU [1] | Trimeric HA Binding: RLU [2] | Trimeric HA Binding: RLU [3] | Trimeric HA Binding: RLU [4] | Trimeric HA Binding: RLU [5] | Trimeric HA Binding: RLU [6] | Trimeric HA Binding: RLU [7] | Trimeric HA Binding: RLU [8] | Trimeric HA Binding: RLU [9] | Trimeric HA Binding: RLU [10] | Trimeric HA Binding: RLU [11] | Trimeric HA Binding: RLU [12] |
| --- | --- | --- | --- | --- | --- | --- | --- | --- | --- | --- | --- | --- |
| B1 | 15200 RLU | 48100 RLU | 20100 RLU | 21500 RLU | 20600 RLU | 49100 RLU | 19700 RLU | 23600 RLU | 20800 RLU | 23400 RLU | 26000 RLU | 11100 RLU |
| B2 | 21200 RLU | 25200 RLU | 22600 RLU | 44600 RLU | 23300 RLU | 47200 RLU | 26900 RLU | 36800 RLU | 23100 RLU | 39700 RLU | 24100 RLU | 9490 RLU |
